One may read the Kd as the concentration at which binding is half-saturated.

One data set has as its target PABPC1 RRM1/2/3/4 (human, UniProt P11940 1-370). The experiment in a line: SPR. Background: SPR reads the build-up and loss of mass on a sensor chip optically.
The target in another data set is PABPC1 (full length) (human, UniProt P11940 1-636). The experiment in a line: SPR.
The target in the next data set is PABPC1 RRM2 (human, UniProt P11940 100-190). Description: ITC. (Isothermal titration calorimetry measures the heat released or taken up as one component is titrated into another.)
Chain of PABPC1 RRM2 (P11940 100-190): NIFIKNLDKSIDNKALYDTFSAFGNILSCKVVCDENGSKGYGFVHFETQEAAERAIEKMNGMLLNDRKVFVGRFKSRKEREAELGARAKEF
The next data set deals with PABPC1 RRM2/3 (human, UniProt P11940 100-289). The experiment in a line: ITC.
Chain of PABPC1 RRM2/3 (P11940 100-289): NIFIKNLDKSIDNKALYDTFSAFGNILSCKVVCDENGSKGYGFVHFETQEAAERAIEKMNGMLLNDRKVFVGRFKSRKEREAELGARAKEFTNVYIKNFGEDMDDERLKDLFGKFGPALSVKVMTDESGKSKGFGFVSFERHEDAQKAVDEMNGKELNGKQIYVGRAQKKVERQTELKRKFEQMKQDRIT
The next data set deals with PABPC1 RRM1 (human, UniProt P11940 1-99). Description: ITC.
Chain of PABPC1 RRM1 (P11940 1-99): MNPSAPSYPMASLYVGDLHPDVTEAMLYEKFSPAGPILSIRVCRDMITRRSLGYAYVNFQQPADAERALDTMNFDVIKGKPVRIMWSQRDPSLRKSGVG
The next data set has as its target PABPC1 RRM4 (human, UniProt P11940 290-371). Description: ITC.
Another data set has as its target PABPC1 RRM3 (human, UniProt P11940 191-289). The experiment in a line: ITC.

Chain of PABPC1 (full length) (P11940 whole entry): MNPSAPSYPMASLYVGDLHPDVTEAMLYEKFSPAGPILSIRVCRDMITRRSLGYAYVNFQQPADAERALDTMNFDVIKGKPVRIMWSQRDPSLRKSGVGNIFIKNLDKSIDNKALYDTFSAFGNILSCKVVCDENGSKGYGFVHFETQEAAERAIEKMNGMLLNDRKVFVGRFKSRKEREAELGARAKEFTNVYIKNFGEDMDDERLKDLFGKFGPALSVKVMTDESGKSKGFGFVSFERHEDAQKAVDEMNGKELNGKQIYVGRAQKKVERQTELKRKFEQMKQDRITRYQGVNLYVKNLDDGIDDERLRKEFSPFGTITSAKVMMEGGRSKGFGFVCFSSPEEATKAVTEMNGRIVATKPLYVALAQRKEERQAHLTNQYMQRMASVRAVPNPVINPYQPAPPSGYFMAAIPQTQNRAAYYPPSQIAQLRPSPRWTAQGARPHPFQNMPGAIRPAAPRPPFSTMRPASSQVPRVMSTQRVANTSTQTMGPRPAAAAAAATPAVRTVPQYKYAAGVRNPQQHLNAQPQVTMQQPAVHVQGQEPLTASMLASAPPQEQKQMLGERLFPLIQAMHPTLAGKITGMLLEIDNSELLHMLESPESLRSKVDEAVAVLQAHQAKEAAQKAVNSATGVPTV
Chain of PABPC1 RRM1/2/3/4 (P11940 1-370): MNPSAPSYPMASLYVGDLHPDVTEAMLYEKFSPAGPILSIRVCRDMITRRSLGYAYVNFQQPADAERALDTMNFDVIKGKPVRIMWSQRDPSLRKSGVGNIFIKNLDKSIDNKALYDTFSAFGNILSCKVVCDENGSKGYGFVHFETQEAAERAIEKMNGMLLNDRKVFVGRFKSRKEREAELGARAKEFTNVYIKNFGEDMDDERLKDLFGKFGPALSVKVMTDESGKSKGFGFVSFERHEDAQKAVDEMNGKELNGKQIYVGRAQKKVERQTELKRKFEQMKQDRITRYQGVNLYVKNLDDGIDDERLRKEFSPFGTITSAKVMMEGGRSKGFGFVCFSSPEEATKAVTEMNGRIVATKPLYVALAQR
Chain of PABPC1 RRM4 (P11940 290-371): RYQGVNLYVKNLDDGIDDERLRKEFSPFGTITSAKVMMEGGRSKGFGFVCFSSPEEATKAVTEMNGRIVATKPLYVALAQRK
Chain of PABPC1 RRM3 (P11940 191-289): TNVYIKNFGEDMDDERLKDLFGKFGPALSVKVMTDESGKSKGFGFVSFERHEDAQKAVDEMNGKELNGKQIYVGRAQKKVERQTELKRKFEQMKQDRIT

As to AAAAAAAAAAAAAAAAAAAAAAAA (ssRNA) [A24], the binding result with PABPC1 RRM1/2/3/4 and with PABPC1 (full length) was “binds” in each case.

Turning to AAAAAAAAAAAA (ssRNA) [A12], the Kd amounted to 70 ± 3 µM with PABPC1 RRM2 and 0.0013 ± 0.0006 µM with PABPC1 RRM2/3.

In the case of AAAAAAA (ssRNA) [A7], the binding result with PABPC1 RRM1 and with PABPC1 RRM4 was “no binding” in each case. Further, the Kd in the data set with PABPC1 RRM3 came out at 4.7 ± 0.3 µM; with PABPC1 RRM2, 200 ± 40 µM; in the data set with PABPC1 RRM2/3, 0.71 ± 0.1 µM.

For the origin of these results see article PMC9019252.
